{"source": "paper PMC9384509", "key": {"[1]": {"target": "human Angiotensin Converting Enzyme 2 (ACE2, amino acids 19-615) fused to human IgG Fc (human) (UniProt Q9BYF1)", "assay": "SPR"}, "[2]": {"target": "human Angiotensin Converting Enzyme 2 (ACE2, amino acids 19-615) fused to human IgG Fc (human) (UniProt Q9BYF1)"}}, "data": [{"substance": "SARS-CoV-2 receptor binding domain Y489R mutant (RBD-Y489R) (domain or fragment; other documents disagree on this pair)", "values": [{"measurement": "percent reduction of binding against RBD-WT", "setting": "[1]", "value": 94, "unit": "%"}]}, {"substance": "SARS-CoV-2 receptor binding domain (RBD, original Wuhan variant), amino acids 330-532 (domain or fragment)", "values": [{"measurement": "reduction of the surface membrane ACE2 level on pericytes (immunohistochemistry, overlap with PDGFRβ) after 3 h of RBD (0.7 mg/l) on hamster brain slices; ACE2 is the endogenous hamster protein", "setting": "[2]", "value": 32, "unit": "%"}]}]}
